B1: Mitogen-activated protein kinase kinase kinase 1 (Rattus norvegicus (Rat)), Q62925 (parent)
chain: MAAAAGDRASSSGFPGAAAASPEAGGGGGALQGSGAPAAGAGLLRETGSAGRERADWRRQQLRKVRSVELDQLPEQPLFLTASPPCPSTSPSPEPADAAAGASGFQPAAGPPPPGAASRCGSHSAELAAARDSGARSPAGAEPPSAAAPSGREMENKETLKGLHKMDDRPEERMIREKLKATCMPAWKHEWLERRNRRGPVVVKPIPIKGDGSEMSNLAAELQGEGQAGSAAPAPKGRRSPSPGSSPSGRSGKPESPGVRRKRVSPVPFQSGRITPPRRAPSPDGFSPYSPEETSRRVNKVMRARLYLLQQIGPNSFLIGGDSPDNKYRVFIGPQNCSCGRGTFCIHLLFVMLRVFQLEPSDPMLWRKTLKNFEVESLFQKYHSRRSSRIKAPSRNTIQKFVSRMSNCHTLSSSSTSTSSSENSIKDEEEQMCPICLLGMLDEESLTVCEDGCRNKLHHHCMSIWAEECRRNREPLICPLCRSKWRSHDFYSHELSSPVDSPTSLRGVQQPSSPQQPVAGSQRRNQESNFNLTHYGTQQIPPAYKDLAEPWIQAFGMELVGCLFSRNWNVREMALRRLSHDVSGALLLANGESTGTSGGGSGGSLSAGAASGSSQPSISGDVVEAFCSVLSIVCADPVYKVYVAALKTLRAMLVYTPCHSLAERIKLQRLLRPVVDTILVKCADANSRTSQLSISTLLELCKGQAGELAVGREILKAGSIGVGGVDYVLSCILGNQAESNNWQELLGRLCLIDRLLLEISAEFYPHIVSTDVSQAEPVEIRYKKLLSLLAFALQSIDNSHSMVGKLSRRIYLSSARMVTTVPPLFSKLVTMLSASGSSHFARMRRRLMAIADEVEIAEVIQLGSEDTLDGQQDSSQALAPPRYPESSSLEHTAHVEKTGKGLKATRLSASSEDISDRLAGVSVGLPSSATTEQPKPTVQTKGRPHSQCLNSSPLSPPQLMFPAISAPCSSAPSVPAGSVTDASKHRPRAFVPCKIPSASPQTQRKFSLQFQRTCSENRDSEKLSPVFTQSRPPPSSNIHRAKASRPVPGSTSKLGDASKNSMTLDLNSASQCDDSFGSGSNSGSAVIPSEETAFTPAEDKCRLDVNPELNSSIEDLLEASMPSSDTTVTFKSEVAVLSPEKAESDDTYKDDVNHNQKCKEKMEAEEEEALAIAMAMSASQDALPIVPQLQVENGEDIIIIQQDTPETLPGHTKANEPYREDTEWLKGQQIGLGAFSSCYQAQDVGTGTLMAVKQVTYVRNTSSEQEEVVEALREEIRMMSHLNHPNIIRMLGATCEKSNYNLFIEWMAGASVAHLLSKYGAFKESVVINYTEQLLRGLSYLHENQIIHRDVKGANLLIDSTGQRLRIADFGAAARLASKGTGAGEFQGQLLGTIAFMAPEVLRGQQYGRSCDVWSVGCAIIEMACAKPPWNAEKHSNHLALIFKIASATTAPSIPSHLSPGLRDVALRCLELQPQDRPPSRELLKHPVFRTTW

Variants of: B1
Conditions: with ube2n_human UBE2N

Row | Variant | effect of a mutation on the interaction
1 | L438A;M440A | disrupting interaction

Source: IntAct's records for PubMed 25260751
